Substrate in series [1]: CC(=O)[C@H]1CC[C@H]2[C@@H]3CC[C@H]4C[C@H](O)CC[C@]4(C)[C@H]3CC[C@]12C
The experiment in a line: 3alpha-HSD (SDR) activity, fluorescence, Michaelis-Menten fit. It counts as biochemical, Homo sapiens. As to conditions: MRPP2 alone. An excerpt: 3alpha-HSD (SDR) activity, fluorescence, Michaelis-Menten fit on MRPP2 | measured using the neurosteroid allopregnanolone as MRPP2 substrate

Substrate in series [2]: CC(=O)[C@H]1CC[C@H]2[C@@H]3CC[C@H]4C[C@H](O)CC[C@]4(C)[C@H]3CC[C@]12C
Described as above. Format: biochemical, Homo sapiens. As to conditions: in complex with MRPP1ΔMTS.

Series [3] deals with the molecule itself. Briefly: SEC; analytical SEC of single proteins, Superdex S200 10/300 GL (or KW403-4F), apparent mass from standards of known Mr, n = 3. A general note: In gel filtration, larger molecules generally elute earlier.
Series [4] deals with T1, MRPP2, untagged, co-expressed with His-tagged MRPP1 constructs (bicistronic plasmid) (human), Q99714.
T1 chain: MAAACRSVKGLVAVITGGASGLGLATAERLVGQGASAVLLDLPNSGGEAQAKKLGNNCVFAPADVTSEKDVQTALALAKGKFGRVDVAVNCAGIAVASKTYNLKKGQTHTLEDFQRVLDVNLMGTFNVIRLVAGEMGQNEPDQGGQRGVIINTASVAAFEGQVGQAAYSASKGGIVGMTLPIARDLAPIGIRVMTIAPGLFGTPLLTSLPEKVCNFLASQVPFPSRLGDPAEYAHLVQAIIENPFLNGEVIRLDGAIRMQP
The experiment in a line: SEC-SAXS; KW403-4F column in line with SAXS, 4.5 mg/ml; 50 mM sodium phosphate pH 7.4, 300 mM NaCl, 5% glycerol, 1% sucrose, 0.5 mM TCEP (for MRPP1, MRPP2 and MRPP1–MRPP2; buffer for MRPP3 alone not told); no tRNA. As to conditions: remark: other sources report otherwise.

Series [5] deals with T2, MRPP2 (HSD17B10), expressed alone, tag removed (human), Q99714.
T2 chain: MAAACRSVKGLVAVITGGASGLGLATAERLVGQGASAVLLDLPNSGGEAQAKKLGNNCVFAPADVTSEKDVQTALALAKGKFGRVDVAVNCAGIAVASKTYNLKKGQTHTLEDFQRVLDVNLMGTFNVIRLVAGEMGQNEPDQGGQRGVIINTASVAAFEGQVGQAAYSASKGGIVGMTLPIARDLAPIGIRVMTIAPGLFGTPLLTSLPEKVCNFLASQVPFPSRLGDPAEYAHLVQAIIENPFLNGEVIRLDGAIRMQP
The series is described as above. The conditions noted are these: remark: other sources report otherwise.

B1: MRPP2 (Homo sapiens) (protein)
chain: AAACRSVKGLVAVITGGASGLGLATAERLVGQGASAVLLDLPNSGGEAQAKKLGNNCVFAPADVTSEKDVQTALALAKGKFGRVDVAVNCAGIAVASKTYNLKKGQTHTLEDFQRVLDVNLMGTFNVIRLVAGEMGQNEPDQGGQRGVIINTASVAAFEGQVGQAAYSASKGGIVGMTLPIARDLAPIGIRVMTIAPGLFGTPLLTSLPEKVCNFLASQVPFPSRLGDPAEYAHLVQAIIENPFLNGEVIRLDGAIRMQP
notes: full-length MRPP2, N-terminal His6 (pNIC28-Bsa4), TEV treated, E. coli; homotetramer
B1: the Km (as a rule, the concentration of substrate that gives half-maximal velocity) in series [1] was found to be 7.70 ± 0.50 µM.

B2: MRPP1ΔMTS–MRPP2 complex (SDR activity of MRPP2) (Homo sapiens) (protein)
chain: AAACRSVKGLVAVITGGASGLGLATAERLVGQGASAVLLDLPNSGGEAQAKKLGNNCVFAPADVTSEKDVQTALALAKGKFGRVDVAVNCAGIAVASKTYNLKKGQTHTLEDFQRVLDVNLMGTFNVIRLVAGEMGQNEPDQGGQRGVIINTASVAAFEGQVGQAAYSASKGGIVGMTLPIARDLAPIGIRVMTIAPGLFGTPLLTSLPEKVCNFLASQVPFPSRLGDPAEYAHLVQAIIENPFLNGEVIRLDGAIRMQP
notes: co-expressed in E. coli; His-tagged mature MRPP1 (40-403) and untagged full-length MRPP2; 2:4 complex, 194 kDa by SEC-MALS; with tRNA methyltransferase 10 homolog C
Regarding B2, the Km in series [2] was 3.40 ± 0.40 µM.

B3: MRPP1_(ΔMTS) (mature mitochondrial RNase P protein 1, aa 40–403), expressed alone (natural protein, human, UniProt Q7L0Y3 40-403, looked up)
chain: MSSKIPAVTYPKNESTPPSEELELDKWKTTMKSSVQEECVSTISSSKDEDPLAATREFIEMWRLLGREVPEHITEEELKTLMECVSNTAKKKYLKYLYTKEKVKKARQIKKEMKAAAREEAKNIKLLETTEEDKQKNFLFLRLWDRNMDIAMGWKGAQAMQFGQPLVFDMAYENYMKRKELQNTVSQLLESEGWNRRNVDPFHIYFCNLKIDGALHRELVKRYQEKWDKLLLTSTEKSHVDLFPKDSIIYLTADSPNVMTTFRHDKVYVIGSFVDKSMQPGTSLAKAKRLNLATECLPLDKYLQWEIGNKNLTLDQMIRILLCLKNNGNWQEALQFVPKRKHTGFLEISQHSQEFINRLKKAKT
notes: human MRPP1 (TRMT10C/RG9MTD1), 403 aa precursor; residues 40-403, without the mitochondrial targeting signal (1-39); In solution a mixture of monomer and dimer; also called TRMT10C; RG9MTD1; source: E. coli BL21(DE3)-R3-pRARE2, purified
Take B3: in series [3], the stoichiometry N (as a rule, the number of molecules, sites or subunits per partner or assembly) was found to be 2.

B4: MRPP2, untagged, co-expressed with His-tagged MRPP1 constructs (bicistronic plasmid), Q99714 1-261 (natural protein)
chain: MAAACRSVKGLVAVITGGASGLGLATAERLVGQGASAVLLDLPNSGGEAQAKKLGNNCVFAPADVTSEKDVQTALALAKGKFGRVDVAVNCAGIAVASKTYNLKKGQTHTLEDFQRVLDVNLMGTFNVIRLVAGEMGQNEPDQGGQRGVIINTASVAAFEGQVGQAAYSASKGGIVGMTLPIARDLAPIGIRVMTIAPGLFGTPLLTSLPEKVCNFLASQVPFPSRLGDPAEYAHLVQAIIENPFLNGEVIRLDGAIRMQP
Regarding B4, the stoichiometry N in series [4] came to 4.

B5: MRPP2 (HSD17B10), expressed alone, tag removed, Q99714 1-261 (natural protein)
chain: MAAACRSVKGLVAVITGGASGLGLATAERLVGQGASAVLLDLPNSGGEAQAKKLGNNCVFAPADVTSEKDVQTALALAKGKFGRVDVAVNCAGIAVASKTYNLKKGQTHTLEDFQRVLDVNLMGTFNVIRLVAGEMGQNEPDQGGQRGVIINTASVAAFEGQVGQAAYSASKGGIVGMTLPIARDLAPIGIRVMTIAPGLFGTPLLTSLPEKVCNFLASQVPFPSRLGDPAEYAHLVQAIIENPFLNGEVIRLDGAIRMQP
With B5, the stoichiometry N in series [5] was found to be 4.

Values taken from PMC6102140, “Structural insight into the human mitochondrial tRNA purine N1-methyltransferase and ribonuclease P complexes” (The Journal of Biological Chemistry, 2018).
